Positions count from the first letter of the chain named. One block for each binder: values may come before it.
Target: human activated coagulation factor XI (FXIa) (human, UniProt P03951 19-625)
Assay: cell-based or functional assay

apparent Ki, inhibition of FXIa cleavage of chromogenic substrate S-2366: 2.08 nM
B1: h-34F8 (antibody, human IgG4, V domains shown)
VH: QVQLQESGPGLVKPSETLSLTCTVSGFSLTTYHVHWVRQPPGKGLEWIGIMWRDGDTYYNSSLKSRVTISRDTSKNQVSLKLSSVTAADTAVYFCARGGTLTTPFTYWGQGTLVTVSS
VL: DVVLTQTPLSLPVTPGEPASISCRSSQSLESRDGNTYLEWYLQKPGQSPQVLLYGVSNRLSGVPDRFSGSGSGTDFTLKISRVEAEDVGVYYCFQATHGPFTFGQGTKLEIKR

apparent Ki, inhibition of FXIa cleavage of chromogenic substrate S-2366: 1.43 nM
B2: h-42A5 (antibody, human IgG4, V domains shown)
VH: QVTLKESGPVLVKPTETLTLTCTVSGFSLTSYHLHWIRQPPGKALEWMGLMWRDGDTSYNSRLKSRLTISRDTSKSQVVLTMTNMDPVDTATYYCARGMTLATPFLYWGQGTLVTVSS
VL: B1 VL with P12S, E17Q, R32S, V51L, L53I, L60F, V88L, H98R, G99D

apparent Ki, inhibition of FXIa cleavage of chromogenic substrate S-2366: 0.67 nM
B3: h-19F6 (antibody, human IgG4, V domains shown)
VH: EVQLVESGGGLVQPGRSLRLSCTASGFTFSKYAMSWVRQAPGKGLEWVSAINYDGSTTYYADSVKGRFTLSRDNSKNTLYLQMNSLRAEDTAVYYCARHPFNNFGIWFAYWGQGTLVTVS
VL: QFQLTQPSSVSASVGDRVTITCERSSGDIGDSYVSWYQQKPGQPPKNVIYADDQRPSGVPDRFSGSIDGSGNSASLTISSLQAEDAADYFCQSYDSNIDFNPVFGGGTKLEVK

Source: patent EP3581587A1 (Shanghai Benemae Pharmaceutical Corporation, dated 2019)
